Reference: doi:10.1101/481713

Columns and labels:
[1] = molecular target: human Broccoli Ndc80-GFP construct (human) (UniProt O14777)
[2] = molecular target: Xenopus laevis CENP-E-GFP construct (1-473 aa) (Xenopus laevis); assay: binding of microtubules to protein-coated beads seen by fluorescence microscopy
[3] = molecular target: human Broccoli Ndc80-GFP construct (human) (UniProt O14777); assay: as above

Chain of UniProt O14777 (O14777 whole entry, looked up, the tested form may be a part): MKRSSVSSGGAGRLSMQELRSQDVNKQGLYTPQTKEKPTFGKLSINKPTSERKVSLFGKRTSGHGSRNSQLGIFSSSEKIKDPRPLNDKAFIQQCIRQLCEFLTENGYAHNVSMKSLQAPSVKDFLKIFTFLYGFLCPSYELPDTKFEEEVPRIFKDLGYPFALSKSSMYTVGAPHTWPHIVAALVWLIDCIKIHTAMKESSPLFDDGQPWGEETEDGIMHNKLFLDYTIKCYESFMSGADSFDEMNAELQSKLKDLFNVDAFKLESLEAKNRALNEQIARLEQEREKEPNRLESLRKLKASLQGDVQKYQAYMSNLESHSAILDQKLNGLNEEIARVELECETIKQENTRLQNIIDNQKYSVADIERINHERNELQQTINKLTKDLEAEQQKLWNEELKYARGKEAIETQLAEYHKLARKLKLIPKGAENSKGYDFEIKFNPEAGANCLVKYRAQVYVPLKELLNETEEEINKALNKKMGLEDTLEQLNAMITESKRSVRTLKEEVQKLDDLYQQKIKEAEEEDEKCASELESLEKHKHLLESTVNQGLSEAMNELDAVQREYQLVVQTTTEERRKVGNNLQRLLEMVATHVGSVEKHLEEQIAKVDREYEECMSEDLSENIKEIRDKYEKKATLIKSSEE

- reduction of CENP-E motor gliding velocity on beads by the Ndc80 coating [1]: 4 fold
- MT end-retention time [2]: 1.1 min
- percent of MT plus-ends retained at the CENP-E–coated bead [2]: 24%
- time within which >80% of MTs detached (Kaplan–Meier) [2]: < 2.5 min
- percent of MT segments attached via their ends to beads coated with Ndc80 alone [3]: 3%
Substance: microtubules polymerised from bovine brain tubulin (from UniProt Q6B856 1-445) (complex)
